From patent US20260258115A1 (MAPP BIOPHARMACEUTICAL, published 2026)
Changes are numbered by the printed parent chain.

B1: ADI-41409 (antibody, V domains shown)
VH: QVQLVQSGAEVKKPGASVKVSCKASGYTFTNYGISWVRQAPGQGLEWMGWISAYNGNTNYAQKFQDRVTMTTDTSTSTAYMELRSLRYDDTAVYYCARDTPGEYASAMFDHWGQGTLVTVSS
VL: DIVMTQSPLSLPVTLGQPASISCRSSQSLVYSDGNTYLSWFQQRPGQSPRRLIYKVSNRDSGVPDRFSGSGSGTDFTLKISGVEAEDVGVYYCMQGTHWPPTFGQGTKLEIK
B2: ADI-41439 (antibody, V domains shown)
VH: QVQLVQSGTEVKNPGASVKVSCKASGYTFSNYGITWVRQAPGQGLEWMAWISAYNGNILYAQNVQGRVTMTTDTSTSTGYMELRSLRSDDTAVYYCARDAPAGTLTLLDYWGQGTLVTVSS
VL: B1 VL with S7T, S25P, S39N, K79R, G82R, T97S, P101Y, T102A, L109V
B3: ADI-41382 (antibody, V domains shown)
VH: EVQLVESGGGLVQPGRSLRLSCAASGFTFDDYAMHWVRQAPGKGLEWVSGISWSGDTRGYAESVKGRFTITRDNAKKYLYLQMNSLRAEDTAFYYCAKDAYYFGSGNEKFYYGMDVWGQGTTVTVSS
VL: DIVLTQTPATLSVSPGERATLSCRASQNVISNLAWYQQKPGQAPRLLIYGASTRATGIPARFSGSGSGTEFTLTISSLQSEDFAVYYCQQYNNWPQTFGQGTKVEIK
B4: ADI-41399 (antibody, V domains shown)
VH: QVQLVQSGAEVKKPGASVKVSCKASGYTFTTFAIHWVRQAPGQRLEWMGWINAGNGNTKYSQKFQGRVTITRDTSASTAYMELSSLRSEDTAVYYCARPEISSSSLNEKDDYWGQGTLVTVSS
VL: QPVLTQPASVSGSPGQSITISCTGTSSDVGAYDFVSWYQQHPGKAPKFMIYEVSHRPSGVSNRFSGSKSGNTASLTISGLQAEDEADYYCSSYTTSNTLVFGGGTKLTVL
B5: ADI-41423 (antibody, V domains shown)
VH: QVQLVESGGGLVKPGGSLRLSCAASGFTFSSYSMNWVRQAPGKGLEWVSSISSSSSYIYYADSVKGRFTISRDNAKNSLYLQMNSLRAEDTAVYYCARDPSSSWNRNDYWGQGTLVTVSS
VL: QSVLIQPASVSGSPGQSITISCTGTSSDVGGYNYVSWYQQHPGKAPKLMIYDVSNRPSGVSNRFSGSKSGNTASLTISGLQAEDEADYYCSSYTSSSTLVVFGGGTKVTVL
B6: ADI-41438 (antibody, V domains shown)
VH: QVQLVQSGAEMRRPGSSVRLPCKASGYTFVSHTIVWVRQAPGQGLEWMGGIIPSLRTPNYAQNFQDRLTITADESARTAYMELSSLTSNDTAVYYCARETFQGGYYLDYWGQGTLVTVSS
VL: EIVMTQSPGTLSVSPGDTAALSCRASQSVGRNLAWYQQKPGQAPRLLIFGASTRAADIPGRFSGSGSGTEFTLTITSLQSEDFAVYYCQQYNKWPPYTFGQGTKVEIK
B7: ADI-41394 (antibody, V domains shown)
VH: QVQLVQSGAEVKKPGSSVKVSCKASGGTFNTYAISWVRQAPGQGLEWMGGIIPILGVSNYAQRFQGRVTFSADELTNTAYMELSSLRSEDTAVYFCARPVGAYTLGDAFEIWGRGTTVTVSS
VL: QPVLTQSSSASASLGSSVKLTCTLSSGHSDFIIAWHQQQPGKAPRYLMKFEGNGRYSKGSGIPDRFSGSSSGADRCLTISNLQSEDEADYYCETWDSNTHVVFGGGTKLTVL
B8: ADI-41386 (antibody, V domains shown)
VH: QVQLVQSGAEVKKPGASVKVSCKASGYTFTGNYIHWVRQAPGQGLEWMGGINPNSGATNYARKFQGRISMTRDTSINTAYMEVSSLRSDDTATYYCARDAPPVVIPAAIHWFDAWGQGTLVTVSS
VL: SYELTQPPSASGTPGQRVTISCSGSSSNIGRNTVNWYQQFSGTAPRLLIYRTNQRPSGVPDRFSGSKSGTSASLVISGLQSEDEADYYCASWHDTLNDVVFGGGTKLTVL
B9: ADI-41408 (antibody, V domains shown)
VH: QVQLVESGAEVKKPGESLKISCRDSGYSFSSFWIGWVRQMPGKGLEWVGIIYPGDSDIRYSPSFQGRVTISADKSISTAYLQWRSLKASDSAMYYCARSEKLGSFDRWGQGTLVTVSS
VL: DIQMTQSPSSLSASVGDRVTITCQANRDISNCLNWYQQRPGKAPELLIYDASYLETGVPSRFTGSGSGTDFTFTISSLQPEDIATYYCQQYDNLLFTFGPGTKVEIK
B10: ADI-41433 (antibody, V domains shown)
VH: EVQLLESGGGAVQPGRFLRLSCAASGFTFRSYGMHWVRQAPGKGLEWVAVISYDGSDKYYADSVKGRFTISRDNSKNTLFLLMNGLRAEDAAVYYCAKDIASAGTLRGSDVWGQGTMVTVSS
VL: QPVLTQPRSVSGSPGQSVTISCTGTSSDVGGFNYVSWYQQHPGKAPKLMIYDVRVRPSGVPDRFSGSKSGNTASLTISGLQGEDEADYYCCSYTVTYTLVFGGGTKLTVL
B11: ADI-41362 (antibody, V domains shown)
VH: EVQLVESGGGLVQPGGSLRLSCAASGFTFSDHWMNWVRQTPGKGLEWVANIKPDGRETYYVDSVKGRFTISRDNSKKSVYLQMNSLRAEDTAVYYCVRDGHIVVVTAVPPGFFDLWGRGTLVTVSS
VL: DIQVTQSPSSLSASVGDRVTITCQASQDLTKYLNWYQQKPGKAPKLLIYDISNLETGVPSRFSGSGFGTEFTLTISSLQPEDVATYYCQQYQNLPYTFGQGTKVEIK
B12: ADI-41358 (antibody, V domains shown)
VH: EVQLVESGGGLVKPGGSLRLSCEASGFTLTSYSMNWVRQAPGKGLEWVSSISSSSTYIHYADSVKGRFTISRDNAKNSLYLQMNSLRAEDTAVYYCARDKVMVTKYNGMDVWGQGTTVTVSS
VL: QSVLTQPPAVSGAPGQRVTISCTGSSSNIGAGHDVHWYQQLPGTAPKLLIYGNSNRPSGVPDRFSGSKSGTSASLAITGLQAGDEADYYCQSYDSSLSGSLFGGGTKLTVL
B13: ADI-41397 (antibody, V domains shown)
VH: EVQLVESGGGLVKPGGSLRLSCAASGFKFSSYYLNWVRQAPGKGLEWVSSISGGSSYINYADSVKGRFTISRDNAKNTLDLQMSNLRAEDTAVYYCARVVGATGPLYFDLWGRGTLVTVSS
VL: B12 VL with A9S, H33Y, L41F, S54N, G83E, S100Y, L101V, G104A, L108V
B14: ADI-41417 (antibody, V domains shown)
VH: QVQLVESGGGLVKPGGSLRLSCAASGFTFSSYSMNWVRQAPGKGLEWVSSISAGSSYIYYADSLKGRFTISRDNAKNSLYLQMNSLRAEDTAVYYCARVNTHYYDSSAYHNFDSWGQGTLVTVSS
VL: QPVVTQPPSVSGAPGQRVTISCTGSSSNIGAGYDVHWYQQLPGTAPKLLIYGNTNRPSGVPERFSGSKSGTSASLAITGLQAEDEADYYCQSYDTNLSAPWVFGGGTKLTVL
B15: ADI-41359 (antibody, V domains shown)
VH: EVQLVESGGGLVKPGGSLRLSCAASGFTISGYSMDWVRQAPGKGLEWVSSISSSSSYIHYADSVKGRFTISRDNAKNSLYLQMNSLRAEDTAVYYCATNPREGGAFDIWGQGTTVTVSS
VL: QSVLTQPPSMSGAPGQRVTISCTGSSSNIGAGYDVHWYQQLPGTAPKLLIYNNSNRPSGVPDRFSASKSGTSASLAITGLQAEDEADYYCQSYDSSLSGYVFGTGTRVTVP
B16: ADI-41396 (antibody, V domains shown)
VH: EVQLVESGGGLVNPGGSLRLSCVVSGFAFSSYGMNWVRQAPGKGLEWVSSISASSSYIDYADSVKGRFIISRDNAKNSLHLQMNSLRAEDTAVYYCARLGYDSSTYYTNWFDPWGRGTLVTVSS
VL: B15 VL with L4V, P7E, M10V, A31T, T44A, N52G, F64I, A66G, R107K, P111L
B17: ADI-41437 (antibody, V domains shown)
VH: QVQLVQSGGEVKKPGASVKVSCKASGYTFTHYGISWARQAPGQGIEWMGWINVHNGNTEYAQRFQGRVTMTTDTSTNTAYMEMTSLTSDDTAVYYCARDKIVVVVVPNYHGMDVWGQGTLVTVSS
VL: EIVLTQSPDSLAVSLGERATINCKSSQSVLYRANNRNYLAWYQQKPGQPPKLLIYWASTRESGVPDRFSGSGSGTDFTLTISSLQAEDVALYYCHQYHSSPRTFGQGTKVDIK
B18: ADI-41363 (antibody, V domains shown)
VH: QVQLVQSGAEVKKPGSSVKVSCKASGGTFSSYAITWVRQAPGQGLEWMGGIIPLFGTAKYAQQFQGRVTITADESTSTAYMELSSLRSEDTAVYYCARDGEVCTNGFCWFLDWGLGTLVTVSS
VL: DIRVTQSPSSLSASVGDRVTITCQASQDISNYLNWYQQKPGKAPKLLIYDASKLETGVPSRFSGSGSGTDFTFTISSLQPEDIATYYCQNYGNFPHFGGGTKLEIK
B19: ADI-41380 (antibody, V domains shown)
VH: QVQLVQSGAEVKKPGESLKISCKGSGYSFTSYWIGWVRQMPGKGLEWMGIIYPGDSDTRYSPSFQGQVTISADKSISTAYLQWSSLKASDTAMYYCASSRAYYDILTGYYVASAETQTKAAFDIWGQGTTVTVSS
VL: B18 VL with R3Q, K53N, T72S, N90Q, G92D, F94L, P95I, H96T, G99Q, L103V
B20: ADI-41424 (antibody, V domains shown)
VH: QVQLVQSGAEVREPGASVKVSCKPSGYTFANYGISWVRQAPGQGLEWMAWISAYNGNTNYAPKVQGRVSVTTDSSTGIGYMELRSLRSDDTAVYYCVRDTPAIAGAATLDFWGQGTLVTVSS
VL: DIVLTQSPLSLAVTPGQSASISCRSRQSHVFSDGNTYVSWFQQRPGRSPRRLIYRVSYRDSGVPDRFSGSGSGSDFTLRISRVEAEDVGVYYCMQGTHWPRTFGQGTKLEIK
B21: ADI-41364 (antibody, V domains shown)
VH: EVQLLESGAEVKKPGASVKVSCKASGYTFTDHSIHWVRQAPGRGLEWMGWFNPHTGVTDYAQKFQGWVTMTSDTSISTAYMELSSLKSDDTAIYFCARDQWETDGAYFLDYWGQGTLVTVSS
VL: QSALTQPASVSGSPGQSITISCTGTSSDVGNFKLVSWYQQHPGKAPKLMIYEGNKRPSGVSNRFSGSKSGNTASLTISGLQAEDEADYYCCSSAVSSTFFGTGTKLTVL
B22: ADI-41390 (antibody, V domains shown)
VH: EVQLVESGGGLVKPGGSLRLSCAASGFSSSSYFMNWVRQAPGKGPEWVSSISGSSSFINYADSVKGRFTISRDNAKNSLYLQMNSLRAEDTAVYYCARAVLPAGVGGYWFDSWGQGTLVTVSS
VL: QSVVTQPPSVSGAPGQRVTISCTGSSSNIGAGYDVHWYQHLPGRAPKLLIYGNSNRPSGVPDRFSGSKSGTSASLVITGLQAEDEADYCCQSYDSSLSGAVFGGGTQLTVL

biological target: RSV fusion glycoprotein (RSV F) on RSV-A2 virus (respiratory syncytial virus, UniProt P03420 26-574); assay: cell-based or functional assay

Row | Binder | Neutralization IC50 (RSV subtype A)
1 | B1 | 0.29 µg/mL
2 | B2 | 0.34 µg/mL
3 | B3 | 0.02 µg/mL
4 | B4 | > 25 µg/mL
5 | B5 | > 25 µg/mL
6 | B6 | > 25 µg/mL
7 | B7 | > 25 µg/mL
8 | B8 | > 25 µg/mL
9 | B9 | > 25 µg/mL
10 | B10 | > 25 µg/mL
11 | B11 | 0.911 µg/mL
12 | B12 | 0.389 µg/mL
13 | B13 | 0.09 µg/mL
14 | B14 | 0.71 µg/mL
15 | B15 | > 25 µg/mL
16 | B16 | 1.37 µg/mL
17 | B17 | > 25 µg/mL
18 | B18 | 0.143 µg/mL
19 | B19 | 0.0549 µg/mL
20 | B20 | 0.28 µg/mL
21 | B21 | 0.14 µg/mL
22 | B22 | 0.62 µg/mL
